Source: PMC9352969 (The Journal of Biological Chemistry, 2022)

Key:
[1] = biological target: FtsQ, full-length (Escherichia coli divisome transmembrane protein) (Escherichia coli, UniProt P06136 1-276); experiment: pull-down
[2] = biological target: T1, FtsL, full-length (Escherichia coli divisome transmembrane protein) (Escherichia coli, UniProt P0AEN4 1-121); experiment: pull-down
T1 sequence (looked up): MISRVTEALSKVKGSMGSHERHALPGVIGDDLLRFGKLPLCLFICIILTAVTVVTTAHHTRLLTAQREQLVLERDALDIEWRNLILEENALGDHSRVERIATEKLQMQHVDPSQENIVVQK

Sequence of FtsQ, full-length (Escherichia coli divisome transmembrane protein) (P06136 whole entry): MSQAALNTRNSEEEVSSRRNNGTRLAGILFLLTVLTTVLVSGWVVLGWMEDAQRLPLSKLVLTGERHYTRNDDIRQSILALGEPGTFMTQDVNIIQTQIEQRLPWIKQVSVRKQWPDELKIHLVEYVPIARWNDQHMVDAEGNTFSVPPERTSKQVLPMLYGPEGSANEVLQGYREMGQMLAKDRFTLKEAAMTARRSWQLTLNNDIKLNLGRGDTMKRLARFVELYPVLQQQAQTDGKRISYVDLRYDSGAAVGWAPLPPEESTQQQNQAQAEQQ

binding result [1]: binds
binding result [2]: binds
B1: FtsB, full-length, His-tagged (Escherichia coli divisome transmembrane protein) (natural protein, UniProt P0A6S5 1-103, looked up)
chain: MGKLTLLLLAILVWLQYSLWFGKNGIHDYTRVNDDVAAQQATNAKLKARNDQLFAEIDDLNGGQEALEERARNELSMTRPGETFYRLVPDASKRAQSAGQNNR
